The source of these data is patent US20220289816A1, “IMMUNOTHERAPY WITH B*07 RESTRICTED PEPTIDES AND COMBINATION OF PEPTIDES AGAINST CANCERS AND RELATED METHODS” (Immatics Biotechnologies GmbH, priority 2018, published 2022).

For this experiment, the target named is HLA-B*07 (Homo sapiens, UniProt P01889). As to the kind of experiment: MHC binding assay (UV-ligand exchange, ELISA of stabilized MHC complexes). Particulars: peptide exchange yield on HLA-B*07, UV-ligand exchange. Summed up: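 Binding is reported as exchange yield: an ELISA with HRP-conjugated anti-β2m (A450, TMB) quantified how much test peptide stabilized MHC after UV cleavage of a photolabile placeholder peptide. Exchange monomers were diluted 100-fold and captured on streptavidin-coated plates for 1 h at 37 °C.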
Background: ELISA stands for enzyme-linked immunosorbent assay.
For “477 (NPVPVITWYKDNRL; listed as Homo sapiens) [compound 477]”, the Peptide exchange entry is recorded as “++++ (>75% = ++++)”.

Take “478 (APKFISPASQL; listed as Homo sapiens) [compound 478]”: the Peptide exchange result was “++++ (>75% = ++++)”.

Regarding “479 (APHAGGALL; listed as Homo sapiens) [compound 479]”, the Peptide exchange entry is on record as “++++ (>75% = ++++)”.

“480 (VPAAPTKAL; listed as Homo sapiens) [compound 480]”: the Peptide exchange entry is given as “+++ (>50 = +++)”.

Turning to “481 (SPARALLLALA; listed as Homo sapiens) [compound 481]”, the Peptide exchange result is recorded as “+++ (>50 = +++)”.

Regarding “482 (QPSLKKIIL; listed as Homo sapiens) [compound 482]”, the Peptide exchange entry is recorded as “++++ (>75% = ++++)”.

For “483 (KPAAAGVKKVA; listed as Homo sapiens) [compound 483]”, the Peptide exchange entry is recorded as “+++ (>50 = +++)”.

Regarding “484 (LPASAEPKGTM; listed as Homo sapiens) [compound 484]”, the Peptide exchange entry is “++ (>20% = ++)”.

Regarding “486 (TPTRPLPSA; listed as Homo sapiens) [compound 486]”, the Peptide exchange result is on record as “++ (>20% = ++)”.

As to “487 (IPWFIKTAF; listed as Homo sapiens) [compound 487]”, the Peptide exchange entry was “++++ (>75% = ++++)”.

In the case of “488 (LPLGGLPLLI; listed as Homo sapiens) [compound 488]”, the Peptide exchange result is “+++ (>50 = +++)”.

As for “489 (WPNHIMLVL; listed as Homo sapiens) [compound 489]”, the Peptide exchange result is “++++ (>75% = ++++)”.

As to “490 (APRGPAQGEAA; listed as Homo sapiens) [compound 490]”, the Peptide exchange entry is listed as “++++ (>75% = ++++)”.

Regarding “491 (MPEADLKRIF; listed as Homo sapiens) [compound 491]”, the Peptide exchange result is “++ (>20% = ++)”.

“492 (IPFSVDEI; listed as Homo sapiens) [compound 492]”: the Peptide exchange entry is on record as “+ (>10% = +)”.

In the case of “493 (LPLQQYKLV; listed as Homo sapiens) [compound 493]”, the Peptide exchange entry is on record as “+ (>10% = +)”.

With “494 (LPLRAVNLNL; listed as Homo sapiens) [compound 494]”, the Peptide exchange entry was “+++ (>50 = +++)”.

With “495 (SPSYTQASL; listed as Homo sapiens) [compound 495]”, the Peptide exchange result is “++++ (>75% = ++++)”.

Consider “496 (MPAVSGPGPLF; listed as Homo sapiens) [compound 496]”, for which the Peptide exchange result is “+++ (>50 = +++)”.

As to “497 (YVVKPLHPF; listed as Homo sapiens) [compound 497]”, the Peptide exchange result is given as “+++ (>50 = +++)”.

Regarding “498 (RPQPQPRPAL; listed as Homo sapiens) [compound 498]”, the Peptide exchange result is listed as “++++ (>75% = ++++)”.

Take “499 (QPVLPSPAC; listed as Homo sapiens) [compound 499]”: the Peptide exchange result is on record as “++++ (>75% = ++++)”.
